Measurements published in patent US20090297524A1 (DOMANTIS, published 2009).

T1: Recombinant human CD40L (human, UniProt P29965 108-261, limits assumed)
T1 construct: also called CD40 ligand
T1 sequence (looked up): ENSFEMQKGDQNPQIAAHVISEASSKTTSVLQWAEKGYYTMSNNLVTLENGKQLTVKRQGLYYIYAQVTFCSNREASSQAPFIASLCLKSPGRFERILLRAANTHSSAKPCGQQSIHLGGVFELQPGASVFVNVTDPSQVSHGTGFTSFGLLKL


Each binder was assayed against T1, Recombinant human CD40L (assay: CD40L/CD40-Fc receptor binding assay;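 further: plate assay with coated human CD40-Fc, bound ligand detected via HRP anti-biotin antibody and TMB, OD at 450 nm, lower signal indicates stronger inhibition by dAb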).

| binding result | Binder |
| --- | --- |
| binds | DOM-44 (other, VH dAb) VH: EVQLLESGGGLVQPGGSLRLSCAASGFTFTSYEMGWVRQAPGKGLEWVSSIEPTGITTYYADSVKGRFTISRDNSKNTLYLQMNSLRAEDTAVYYCAKPHFTELGFDYWGQGTLVTVSS |
| binds | DOM.202 (other, VH dAb) VH: EVQLLESGGGLVQPGGSLRLSCTASGFTFSHYEMGWVRQAPGKGLEWVSSIEPFGGGTYYADSVKGRFTISRDNSKNTLYLQMNSLRAEDTAVYYCAKVYPQGSFDYWGQGTLVTVSS |
| binds | DOM.203 (other, VH dAb) VH: EVQLLESGGGLVQPGGSLRLSCAASGFTFSNYTMGWVRQAPGKGLEWVSSIRPDGKITYYADSVKGRFTISRDNSKNTLYLQMNSLRAEDTAVYYCAEVYSSCAMCTPLLFDYWGQGTLVTVSS |
| binds | DOM-18 (other, VH dAb) VH: EVQLLESGGGLVQPGGSLRLSCAASGFTFPEYDMTWVRQAPGKGLEWVSYISSDGYSTYYADSVKGRFTISRDNSKNTLYLQMNSLRAEDTAVYYCAKPHGSPREFDYWGQGTLVTVSS |
| binds | DOM-69 (other, VH dAb) VH: EVQLLESGGGLVQPGGSLRLSCAASGFTFLDYGMAWVRQAPGKGLEWVSAISPLGLSTYYADSVKSRFTISRDNSKNTLYLQMNSLRAEDTAVYYCAKEVRVGRGVHPPKFDYWGQGTLVTVSS |
| binds | DOM-53 (other, Vk dAb) VL: DIQMTQSPSSLSASVGDRVTITCRASQAIYGGLRWYQQKPGKAPKLLIYGESMLQSGVPSRFSGSGSGTDFTLTISSLHPEDFATYYCQQVYHKPFTFGQGTKVEIKR |
| binds | DOM.198 (other, VH dAb) VH: EVQLLESGGGLVQPGGSLRLSCAASGFTFERYNMSWVRQAPGKGLEWVSSIRPRGGKTYYADSVKGRFTISRDNSKNTLYLQMNSLRAEDTAVYYCAKWRREGYTGSKFDYWGQGTLVTVSS |
| binds | DOM-40 (other, VH dAb) VH: EVQLLESGGGLVQPGGSLRLSCAASGFTFKAYDMGWVRQAPGKGLEWVSQIGRDGSFTYYADSVKGRFTISRDNSKNTLYLQMNSLRAEDTAVYYCAKPRRYAIFTFDRGQGTLVTVSS |
| binds | DOM-54 (other, VH dAb) VH: EVQLLESGGGLVQPGGSLRLSCAASGFTFTAYRMAWVRQAPGKGLEWVSWISPSGSGTYYADSVKGRFTISRDNSKNTLYLQMNSLRAEDTAVYYCAKTLTDSPSGHYEFDYWGQGTLVTVSS |
| binds | DOM-12 (other, VH dAb) VH: EVQLLESGGGLVQPGGSLRLSCAASGFTFRLYEMAWVRQAPGKGLEWVSGIDILGSRTYYADSVKGRFTISRDNSKNTLYLQMNSLRAEDTAVYYCAKDLSWQGFDYWGQGTLVTVSS |
| binds | DOM-16 (other, VH dAb) VH: EVQLLESGGGLVQPGGSLRLSCAASGFTFMEYAMIWVRQAPGKGLEWVSIISPLGLSTYYADSVKGRFTISRDNSKNTLYLQMNSLRAEDTAVYYCAKYQDSSDSQYTNFDYWGQGTLVTVSS |
| binds | DOM-32 (other, VH dAb) VH: EVQLLESGGGLVQPGGSLRLSCAASGFTFEVYQMGWVRQAPGKGLEWVSFIVPGGDLTYYADSVKGRFTISRDNSKNTLYLQMNSLRAEDTAVYYCAETWPEFDYWGQGTLVTVSS |
| binds | DOM.201 (other, VH dAb) VH: EVQLLESGGGLVQPGGSLRLSCAASGFTFGNYSMGWVRQAPGKGLEWVSSIGRHGGRTYYADSVKGRFTISRDNSKNTLYLQMNSLRAEDTAVYYCAKKGSTYPRFDYWGQGTLVTVSS |
| binds | DOM.200 (other, VH dAb) VH: EVQLLESGGGLVQPGGSLRLSCAASGFTFTNYSMGWVRQAPGKGLEWVSTIRPNGTKTYYADSVKGRFTISRDNSKNTLYLQMNSLRAEDTAVYYCAKRSSAHLQRFDYWGQGTLVTVSS |
| binds | DOM-55 (other, VH dAb) VH: EVQLLESGGGLVQPGGSLRLSCAASGFTFARYEMGWVRQAPGKGLEWVSRITAQGLGTYYADSVKGRFTISRDNSKNTLYLQMNSLRAEDTAVYYCAKYLTDFSSGHQEFDYWGQGTLVTVSS |
| binds | DOM-59 (other, VH dAb) VH: EVQLLESGGGLVQPGGSLRLSCAASGFTFLDYAMGWVRQAPGKGLEWVSTISPMGMGTYYADSVKGRFTISRDNSKNTLYLQMNSLRAEDTAVYYCAKSSAISFTSDISNFDYWGQGTLVTVSS |
| binds | DOM-21 (other, VH dAb) VH: EVQLLESGGGLVQPGGSLRLSCAASGFTFANYEMGWARQAPGKGLEWVSVISEWGYSTYYADSAKGRFTISRDNSKNTLYLQMNSLRAEDTAVYYCAKLVGGTQYEFDYWGQGTLVTVSS |

| binding result | Binder |
| --- | --- |
| binds | DOM-39 (other, Vk dAb) VL: DIQMTQSPSSLSASVGDCVTITCRASQNIDGLLWWYQQKPGKAPKLLIYAGSGLQSGVPSRFSGSGSGTDFTLTISSLQPEDFATYYCQQKAFEPFTFGQGTKVEIKR |
| binds | DOM-45 (other, VH dAb) VH: EVQLLESGGGLVQPGGSLRLSCAASGFTFGNYAMAWVRQAPGKGLEWVSKIGAQGLHTYYAGSVKGRFTISRDNSKNTLYLQMNSLRAEDTAVYYCAKQTTMDYERFDYWGQGTLVTVSS |
| binds | DOM-46 (other, VH dAb) VH: EVQLLESGGGLVQPGGSLRLSCAASGFTFELYAMAWVRQAPGKGLEWVSGIGAVGETTYYADSVKGRFTISRDNSKNTLYLQMNSLRAEDTAVYYCAKEANNLSDNLVFDYWGQGTLVTVSS |
| binds | DOM-56 (other, VH dAb) VH: EVQLLESGGGLVQPGGSLRLSCAASGFTFNDYTMGWVRQAPGKGLEWVSWIHGTGGQTYYADSVKGRFTISRDNSKNTLYLQMNSLRAEDTAVYYCAKALADRSGGVVEFDYWGQGTLVTVSS |
| binds | DOM-33 (other, Vk dAb) VL: DIQMTQSPSSLSASVGDRVTITCRASQTIGESLHWYQQKPGKAPRLLIYFASLLQSGVPSRFSGSGSGTDFTLTISSLQPEDFATYYCQQHHMLPSTFGQGTKVEIKR |
| binds | DOM.207 (other, VH dAb) VH: EVQLLESGGGLVQPGGSLRLSCAASGFTFDKYLMSWVRQAPGKGLEWVSGIEPLGDVTYYADSVKGRFTISRDNSKNTLYLQMNSLRAEDTAVYYCAKEASGDFDYWGQGTLVTVSS |
| binds | DOM-17 (other, VH dAb) VH: EVQLLESGGGLVQPGGSLRLSCAASGFTFEDYGMGWARQAPGKGLEWVSSIGPLGLWTYYADSAKGRFTISRDNSKNTLYLQMNSLRAEDTAVYYCAKSPLEGLITNFDYWGQGTLVTVSS |
| binds | DOM-13 (other, VH dAb) VH: EVQLLESGGGLVQPGGSLRLSCAASGFTFSYYSMYWVRQAPGKGLEWVSSISPFGWGTYYADSVKGRFTISRDNSKDTLYLQMNSLRAEDTAVYYCAKYGETSGPISENFDYWGQGTLVTVSS |
| binds | DOM.204 (other, VH dAb) VH: EVQLLESGGGLVQPGGSLRLSCAASGFTFKRYSMAWVRQAPGKGLEWVSDIGPRGFSTYYADSVKGRFTISRDNSKNTLYLQMNSLRAEDTAVYYCAKVGRGQRDTSQPFDYWGQGTLVTVSS |
| binds | DOM.209 (other, VH dAb) VH: EVQLLESGGGLVQPGGSLRLSCAASGFTFADYEMWWVRQAPGKGLEWVSAISRQGFATYYADSVKGRFTISRDNSKNTLYLQMNSLRAEDTAVYYCAKDLERDDFDYWGQGTLVTVSS |
| binds | DOM.199 (other, VH dAb) VH: EVQLLESGGGLVQPGGSLRLSCAASGFTFERYGMTWVRQAPGKGLEWVSSIWPRGQKTYYADSVKGRFTISRDNSKNTLYLQMNSLRAEDTAVYYCAKGNSRYVFDYWGQGTLVTVSS |
| binds | DOM-51 (other, Vk dAb) VL: DIQMTQSPSSLSASVGDRVTITCRASQPIVDELDWYQQKPGKAPKLLIYAASILQSGVPSRFSGSGSGTDFTLTISSLQPEDFATYYCHQWSTYPTTFGQGTKVEIKR |
| binds | DOM-34 (other, Vk dAb) VL: DIQMTQSPSSLSASVGDRVTITCRASQWIGDSLSWYQQKPGKAPKLLIYFASYLQSGVPTRFSGSGSGTDFTLTISSLQPEDFATYYCQQYFENPVTFGQGTKVGIKR |
| binds | DOM-48 (other, Vk dAb) VL: DIQMTQSPSSLSASVGDRVTITCRASQWIGDSLSWYQQKPGKAPKLLIYFGSYLQNGVPSRFSGSGSGTDFTLTISSLQPEDFATYYCQQYMITPTTFGQGTKVEIKR |
| binds | DOM-50 (other, Vk dAb) VL: DIQMTQSPSSLSASVGDRVTITCRASQWIGDSLSWYQQKPGKAPKLLIYFGSYLQSGVPSRFSGSGSGTDFTLTISSLQPEDSATYYCQQYQYVPSTFGQGTKVEIKQ |
| binds | DOM-61 (other, VH dAb) VH: EVQLLESGGGLVQPGGSLRLSCAASGFTFAAYAMTWVRQAPGKGLEWVSYISPNGTATYYADSVKGRFTISRDNSKNTLYLQMNSLRAEDTAVYYCAEYVGMRWNSFDYWGQGTLVTVSS |
